For the series the following is noted: Vibrio harveyi; pH 7; 25 °C; Urea; CD; NaH2PO4/K2HPO4 50 mM; transition: 4; whole UniProt chain shown.

Values joined by “and” are separate entries in the source; they are usually repeats but may differ in a detail not shown here. Identical values can stand only once.

B1: Alkanal monooxygenase alpha chain wild type, P07740 (protein)
chain: MKFGNFLLTYQPPELSQTEVMKRLVNLGKASEGCGFDTVWLLEHHFTEFGLLGNPYVAAAHLLGATETLNVGTAAIVLPTAHPVRQAEDVNLLDQMSKGRFRFGICRGLYDKDFRVFGTDMDNSRALMDCWYDLMKEGFNEGYIAADNEHIKFPKIQLNPSAYTQGGAPVYVVAESASTTEWAAERGLPMILSWIINTHEKKAQLDLYNEVATEHGYDVTKIDHCLSYITSVDHDSNRAKDICRNFLGHWYDSYVNATKIFDDSDQTKGYDFNKGQWRDFVLKGHKDTNRRIDYSYEINPVGTPEECIAIIQQDIDATGIDNICCGFEANGSEEEIIASMKLFQSDVMPYLKEKQ
Consider B1, for which the unfolding free energy was 4.5 kcal/mol and 2.8 kcal/mol.

Values taken from FireProtDB (doi:10.1021/bi012113g).
